Results as given in US20240360201A1.

Tests used:
[1] = biological target: FcγRIIIA-F176-Sino (human) (UniProt P08637); experiment: SPR Biacore T200; binder captured on protein A chip, Fc receptor as analyte
FcγRIIB-Acro (human) = FcγRIIB-Acro (human) (UniProt P31994); experiment: SPR (Biacore T200), antibody captured on protein A sensor chip, Fc receptor as analyte; analyte range 3200nm-25nm

Kd [1]: 563 nM
Kd (FcγRIIB-Acro (human)): 3330 nM
Substance: PDL1-avelumab (antibody)
